Reference: PMC7954438

Target: Sushi domain of IL15Rα (aa1-66) fused to the CH2-CH3 of human IgG1 Fc
Assay: SEC

Sequence of Sushi domain of IL15Rα (aa1-66) fused to the CH2-CH3 of human IgG1 Fc (Q13261 1-66): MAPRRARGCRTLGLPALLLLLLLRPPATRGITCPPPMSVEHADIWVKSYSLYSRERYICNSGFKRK

Substance: Sushi domain of IL15Rα (aa1-66) fused to the CH2-CH3 of human IgG1 Fc (Fc fusion)
- stoichiometry N: 2
